These results are taken from US20210325404A1 (ADURO BIOTECH HOLDINGS EUROPE B V, published 2021).

Test [1] concerns the target T1, human APRIL in serum of CLL patients (human, UniProt O75888 105-250).
T1 construct: Endogenous soluble APRIL in patient sera (CLL1, CLL3, CLL6, CLL11-20); also called hAPRIL; A Proliferation-Inducing Ligand
T1 sequence (looked up): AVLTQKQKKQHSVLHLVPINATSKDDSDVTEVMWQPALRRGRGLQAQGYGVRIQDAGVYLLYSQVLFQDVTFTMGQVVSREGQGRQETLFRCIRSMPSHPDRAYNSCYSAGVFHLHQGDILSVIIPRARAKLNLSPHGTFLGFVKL
Put plainly: ELISA: serum APRIL of CLL1, CLL3 and CLL6 captured by BCMA-Fc (500 or 100 ng/well). The protocol:
To quantify the APRIL serum levels in serum derived from CLL patients using the newly identified APRIL monoclonal antibodies, hAPRIL.130, hAPRIL.132, hAPRIL.133, hAPRIL.135 and hAPRIL.138 the following ELISA assay was performed. […] Next, plates were washed three times with PBS/0.2% Tween and blocked with 150 μl PBS/1% BSA for one hour at 37° C. After washing 3 times with PBS/0.2% Tween 100 μl of samples or standard curves was added. The CLL serum samples were five times diluted in PBS/10% FCS, while standard curve was diluted in PBS+FCS 10%+HS 20%. Samples and standard curve concentrations were incubated for 2 hr at room temperature. Next, plates were washed three times with PBS/0.2% Tween. Next, 100 μl of the anti-APRIL monoclonal antibody was added to the plates at a concentration of 1 μg/ml diluted in PBS/1% BSA and incubated for one hour at 37° C. Subsequently, plates were washed three times with PBS/0.2% Tween and 100 μl of Goat anti-Mouse IgG (H&L) (Southern Biotech, cat number 1031-05), diluted 1:1,000 in PBS/1% BSA was added and incubated for one hour at 37° C. Plates were washed three times with PBS/0.2% Tween and bound immune complexes visualized by addition of 100 μl of TMB substrate (TMB). The reaction was stopped by adding an equal amount of 1 M hydrochloric acid to the reaction volume. Bound APRIL was quantified by measurement of optical density at 450 nm.
Background: In an ELISA, binding on a coated surface is turned into a signal by an enzyme label.

The target in test [2] is T1, human APRIL in serum of CLL patients. The test is described as follows: ELISA: serum APRIL captured by BCMA-Fc, antibody at 1 µg/ml, goat anti-mouse IgG detection. The protocol: To quantify the APRIL serum levels in serum derived from CLL patients using the newly identified APRIL monoclonal antibodies, hAPRIL.130, hAPRIL.132, hAPRIL.133, hAPRIL.135 and hAPRIL.138 the following ELISA assay was performed. ELISA plates were coated with 100 μl of 0.5 μg/ml BCMA-Fc (EBC0512081; R&D), in coating buffer (0.2 M Sodium Phosphate, pH=6.5) and incubated overnight at 4° C. Next, plates were washed three times with PBS/0.2% Tween and blocked with 150 μl PBS/1% BSA for one hour at 37° C. After washing 3 times with PBS/0.2% Tween 100 μl of samples or standard curves was added. The CLL serum samples were five times diluted in PBS/10% FCS, while standard curve was diluted in PBS+FCS 10%+HS 20%. Samples and standard curve concentrations were incubated for 2 hr at room temperature. Next, plates were washed three times with PBS/0.2% Tween. Next, 100 μl of the anti-APRIL monoclonal antibody was added to the plates at a concentration of 1 μg/ml diluted in PBS/1% BSA and incubated for one hour at 37° C. Subsequently, plates were washed three times with PBS/0.2% Tween and 100 μl of Goat anti-Mouse IgG (H&L) (Southern Biotech, cat number 1031-05), diluted 1:1,000 in PBS/1% BSA was added and incubated for one hour at 37° C. […] Bound APRIL was quantified by measurement of optical density at 450 nm.

Positions count from the first letter of the chain named.

B1: hAPRIL.133 (antibody, IgG1, V domains shown)
VH: QVQLKESGPGLVAPSQSLSITCTVSGFSLTGYGVNWVRQPPGKGLEWLGVIWGDGSTEYNSALKSRLSISKDKSKSQVFLKMNSLQTDDTARYYCARDDDVMDYWGQGTSVTVSS
VL: SIVMTQTPKFLLVSAGDSITITCKADQSVSSDVAWYQQKAGQSPKLLIYYASNRYTGVPDRFTGSGYGTDFTFAISSVQAEDLAVYFCQQDYSSPWTFGGGTKLEIK
notes: constant regions are not; also called hAPRIL.133 mAb; anti-hAPRIL.133 monoclonal antibody
B1: the binding result in test [1] is “binds”.

B2: hAPRIL.135 (antibody, IgG1, V domains shown)
VH: QVQLKESGPGLVAPSQSLSITCTVSGFSLSRYSVHWVRQPPGKGLEWLGMIWGGGSTDYNSALKSRLSISKDNSKRQVFLKMNSLQTDDTAIYYCARSNWEIYALDYWGQGTSVTVSS
VL: DIVLTQSPASLAVSLGQRATISCKASQSIDYDGDNYMNWYQQKPGQPPKLLIYVASSLESGIPARFSGSGSGTDFTLNIHPVEEEDAATYYCQQSNVEPYTFGGGTKLEIK
notes: constant regions are not; also called anti-hAPRIL antibody hAPRIL.135
Consider B2, for which the binding result in test [1] is “binds”.

B3: hAPRIL.138 (antibody, IgG1, V domains shown)
VH: B2 VH with V34I, G42R, S70N, N83H, L105M
VL: B2 VL with A9P, N35R, S57N, N96H, V97E, Y100H
notes: constant regions are not; also called anti-hAPRIL antibody hAPRIL.138
Turning to B3, the binding result in test [2] is given as “binds”.

B4: hAPRIL.132 (antibody, IgG1, V domains shown)
VH: QEQLKESGPGLVAPSQSLSITCTVSGFSLTSYGVHWVRQPPGKGLEWLGVIWAGGSTNYNSALMSRLSISRDNSKSQVFLKMNSLQTDDTAMYYCAREGLDTSGFYYAMDYWGQGTSVTVSS
VL: DIQMTQTTSSLSASLGDRVTISCRAGQAISNYLNWYQQKPGGTVKLLIYYTSKLHSGVPSRFSGSGSGTDYSLTISNLEQEDIATYFCQQGYTLPYTFGGGTKLEIK
notes: constant regions are not; also called anti-hAPRIL antibody hAPRIL.132
Take B4: the binding result in test [1] was “binds”.
